Experiment in all cases: filter binding
Conditions in all cases: Nitrocellulose filter binding, 0.5 ml, 37 C, 30-60 min, then agarose gel. Topo IV: 40 mM Tris-HCl pH 7.5, 6 mM MgCl2, 100 mM KOAc, 1 mM DTT, 0.1 mM EDTA

The subject of series [1] is Topo IV (ParC+ParE) (Escherichia coli).
Series [2] relates to ntop1 Y723F (nuclear topoisomerase I) (human).
Series [3] concerns RecQ (Escherichia coli).
Series [4] relates to EcoRV.
For series [5], the system named is Tfam (human).
Series [6] relates to top1mt Y559F (mitochondrial topoisomerase I) (human).

On to “pBR322, negatively supercoiled topoisomer dLk about -23 (unresolved band below -10)”, for which the binding signal (fold Ka vs relaxed) in series [1] worked out at 5.

pBR322, nicked (open circular) showed a binding signal (Ka nicked/Ka relaxed) in series [2] (nick, position undefined) of 8.6.

With “pBR322, relaxed closed circular (dLk 0; dLk -1 as reference for Topo IV and Tfam)”, the binding signal (Ka ratio (reference dLk 0)) in series [2], in series [3], in series [4] and in series [6] was 1 in each case. Also, the binding signal (Ka ratio (reference dLk -1)) in series [5] and in series [1] was 1 in each case.

The values are drawn from publication PMC4402506.
